Patent US6509033B1, “Immunomodulatory peptides” (President and Fellows of Harvard College, priority 1992, dated 2003)
Ends that are not written are not given here.

Target: T1, HLA-DR1 (Homo sapiens, UniProt P01903+P01911, A100R/D57E/F55L/F60I/F76Y/I96L/L162R/M171V/P40L/Q125E/R42F/V115G/Y59C)
T1 construct: made in house; host or cells: Sf9 insect cells
Test: Competition of synthetic peptides against 125I-labeled HA 307-319 for binding to empty HLA-DR1 (Ki)

Ki (read-out: Ki vs HA 307-319, concentration inhibiting 50% of 125I-labeled HA 307-319 binding, 10 nM labeled peptide, 10 nM empty HLA-DR1 from Sf9 insect cells, pH 7.2, 37° C., 85 hours) [nM]	Sequence	relative binding affinity to DR1 among competitor peptides (competition against HA peptide, empty DR1, first approximation)
–	KMRMATPLLMQALP (MRMATPLLMQALPM) [Ii 107-120, invariant chain peptide named in b65]	highest affinity of all the competitor peptides measured
< 10	KMRMATPLLMQALPM [Ii 106-120]	–
